Where a chain is given by its changes, count along the chain named. Names may count otherwise.
B1: anti-TfR^2/BACE1 bispecific antibody (15G11.W92A arm, human IgG1 D265A N297G, knob in hole) (bispecific antibody, part only; not given: Anti-BACE1 arm and constant regions, V domains shown, not shown: another chain or arm of the molecule; a dimerising Fc or GST; small tags and cut ends)
VH: EVQLVQSGAEVKKPGASVKVSCKASGYTFTSYWMHWVRQAPGQRLEWIGEINPTNGRTNYIEKFKSRATLTVDKSASTAYMELSSLRSEDTAVYYCARGTRAYHYWGQGTMVTVSS
VL: DIQMTQSPSSLSASVGDRVTITCRASDNLYSNLAWYQQKPGKSPKLLVYDATNLADGVPSRFSGSGSGTDYTLTISSLQPEDFATYYCQHFAGTPLTFGQGTKVEIK
B2: anti-TfR^1/BACE1 bispecific antibody (15G11.v5 arm, human IgG1 D265A N297G, knob in hole) (bispecific antibody, part only; not given: Anti-BACE1 arm and constant regions, V domains shown, not shown: another chain or arm of the molecule; a dimerising Fc or GST; small tags and cut ends)
VH: B1 VH
VL: B1 VL with A92W
B3: antiTfR.52A.M108L.Fab (Fab, V domains shown)
VH: B1 VH with N52A, M111L
VL: B1 VL with A92W
notes: Fab; also called anti-TfR Fab comprising the M108L mutation
B4: Hu15G11.HC52A Fab (Fab, V domains shown)
VH: B1 VH with N52A
VL: B1 VL with A92W
notes: Fab; also called antiTfR.52A.Fab; 15G11.52A Fab

What was measured:
[1] = biological target: Human TfR extracellular domain containing an N-terminal His tag (human) (UniProt P02786); assay: SPR, monovalent, TfR captured via anti-His, bispecific injected
Sequence of Human TfR extracellular domain containing an N-terminal His tag (human) (P02786 89-760 G142S): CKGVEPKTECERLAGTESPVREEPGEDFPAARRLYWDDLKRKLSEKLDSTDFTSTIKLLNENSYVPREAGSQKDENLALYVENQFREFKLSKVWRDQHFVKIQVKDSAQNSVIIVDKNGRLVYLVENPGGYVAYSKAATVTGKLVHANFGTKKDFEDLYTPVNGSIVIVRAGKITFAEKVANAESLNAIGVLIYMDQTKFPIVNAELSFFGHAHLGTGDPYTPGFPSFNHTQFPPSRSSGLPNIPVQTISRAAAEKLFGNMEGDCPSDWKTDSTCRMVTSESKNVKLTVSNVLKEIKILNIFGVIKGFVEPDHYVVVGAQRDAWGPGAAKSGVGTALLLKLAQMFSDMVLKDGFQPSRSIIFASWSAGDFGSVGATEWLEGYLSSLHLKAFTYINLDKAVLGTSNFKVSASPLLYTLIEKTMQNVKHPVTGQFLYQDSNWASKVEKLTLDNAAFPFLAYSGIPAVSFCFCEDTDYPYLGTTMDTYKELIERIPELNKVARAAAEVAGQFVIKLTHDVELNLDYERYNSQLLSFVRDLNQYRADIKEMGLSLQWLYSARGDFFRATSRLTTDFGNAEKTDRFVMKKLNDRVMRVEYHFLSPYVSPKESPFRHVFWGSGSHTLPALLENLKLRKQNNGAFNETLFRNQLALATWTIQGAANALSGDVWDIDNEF

[2] = biological target: Human TfR extracellular domain containing an N-terminal His tag (human) (UniProt P02786); assay: SPR, bispecific antibody
[3] = biological target: T1, TfR (species and construct not stated, Table 13) (Homo sapiens (Human), UniProt P02786 89-760); assay: kinetic measurement, method not stated
T1 construct: not shown: N-terminal His tag of the soluble TfR ecd construct
T1 sequence (P02786 89-760 G142S limits assumed): as the sequence (P02786 89-760 G142S) above

| Binder | Kd [1] [nM] | koff [1] [s⁻¹] | kon [1] [M⁻¹ s⁻¹] | Kd [2] [nM] | koff [3] [s⁻¹] | kon [3] [M⁻¹ s⁻¹] |
| --- | --- | --- | --- | --- | --- | --- |
| B1 | 295 | 0.0377 | 128000 | 270 |  |  |
| B2 |  |  |  | 10 |  |  |
| B3 |  |  |  |  | 0.0231 | 320000 |
| B4 |  |  |  |  | 0.0204 | 371000 |
